Legend:
[1] = biological target: T1, insulin fibrils formed from purified bovine insulin, P01317
T1 chain: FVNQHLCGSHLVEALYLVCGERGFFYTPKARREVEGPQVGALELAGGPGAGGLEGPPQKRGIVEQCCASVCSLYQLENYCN

[2] = biological target: Aβ40 fibrils formed from a synthetic Aβ40 peptide
[3] = biological target: β2-microglobulin (β2-M) fibrils, P61769
[4] = biological target: transthyretin (TTR) fibrils, P02766

Sequence of β2-microglobulin (β2-M) fibrils, P61769 (P61769 21-119): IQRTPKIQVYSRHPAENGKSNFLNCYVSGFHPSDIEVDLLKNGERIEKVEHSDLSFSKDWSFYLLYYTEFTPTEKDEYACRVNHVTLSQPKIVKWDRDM

B1: nattokinase (protein)
chain: AQSVPYGISQIKAPALHSQGYTGSNVKVAVIDSGIDSSHPDLNVRGGASFVPSETNPYQDGSSHGTHVAGTIAALNNSIGVLGVAPSASLYAVKVLDSTGSGQYSWIINGIEWAISNNMDVINMSLGGPTGSTALKTVVDKAVSSGIVVAAAAGNEGSSGSTSTVGYPAKYPSTIAVGAVNSSNQRASFSSVGSELDVMAPGVSIQSTLPGGTYGAYNGTSMATPHVAGAAALILSKHPTWTNAQVRDRLESTATYLGNSFYYGKGLINVQAAAQ
Which “degradation of insulin fibrils at pH 5, 40 C, by CD spectroscopy” value [1] does the source give for B1 here?
Its value is “At pH 5, nattokinase did not show any activity”.

And the “degradation of insulin fibrils at pH 5-10, 40 C, by CD spectroscopy” value [1]?
The value was “the nattokinase activity increased gradually with increasing pH and reached a maximal activity at pH 10 in the range tested”.

And the “loss of negative ellipticity at 218 nm in CD spectra after 1 hr of digestion (40 C, pH 7)” value [1]?
The value was “nattokinase degraded all three fibrils”.

And the “loss of negative ellipticity at 218 nm in CD spectra after 1 hr of digestion (40 C, pH 7)” value [2]?
The value was “nattokinase degraded all three fibrils”.

What about the “degradation of β2-M fibrils at pH 7.4 and 37 C, by ThT fluorescence emission at 487 nm” value [3] of the same protein?
Its value is “As for β2-M fibrils, it was degraded near completion in two hours”.

And the “degradation of TTR fibrils at pH 7.4 and 37 C, by ThT fluorescence emission at 487 nm” value [4]?
The value was “TTR fibrils were almost completely degraded by nattokinase in one hour”.
